Consider one molecule from patent US20240207380A1, “NOVEL PEPTIDE TARGETING DENDRITIC CELLS, AND COMPOSITION FOR TREATING CANCER COMPRISING SAME” (INDUSTRY FOUNDATION OF CHONNAM NATIONAL UNIVERSITY, priority 2021, published 2024).

“Also recorded” adds a separate entry of the source.

For one series, the target named is T1, TLR5 (Homo sapiens, UniProt O60602).
T1 construct: host or cells: HEK-Blue hTLR5 cells (HEK293-derived reporter line, own knowledge: stably transfected with the human TLR5 gene and an NF-kB-inducible SEAP reporter)
T1 sequence (O60602 21-858): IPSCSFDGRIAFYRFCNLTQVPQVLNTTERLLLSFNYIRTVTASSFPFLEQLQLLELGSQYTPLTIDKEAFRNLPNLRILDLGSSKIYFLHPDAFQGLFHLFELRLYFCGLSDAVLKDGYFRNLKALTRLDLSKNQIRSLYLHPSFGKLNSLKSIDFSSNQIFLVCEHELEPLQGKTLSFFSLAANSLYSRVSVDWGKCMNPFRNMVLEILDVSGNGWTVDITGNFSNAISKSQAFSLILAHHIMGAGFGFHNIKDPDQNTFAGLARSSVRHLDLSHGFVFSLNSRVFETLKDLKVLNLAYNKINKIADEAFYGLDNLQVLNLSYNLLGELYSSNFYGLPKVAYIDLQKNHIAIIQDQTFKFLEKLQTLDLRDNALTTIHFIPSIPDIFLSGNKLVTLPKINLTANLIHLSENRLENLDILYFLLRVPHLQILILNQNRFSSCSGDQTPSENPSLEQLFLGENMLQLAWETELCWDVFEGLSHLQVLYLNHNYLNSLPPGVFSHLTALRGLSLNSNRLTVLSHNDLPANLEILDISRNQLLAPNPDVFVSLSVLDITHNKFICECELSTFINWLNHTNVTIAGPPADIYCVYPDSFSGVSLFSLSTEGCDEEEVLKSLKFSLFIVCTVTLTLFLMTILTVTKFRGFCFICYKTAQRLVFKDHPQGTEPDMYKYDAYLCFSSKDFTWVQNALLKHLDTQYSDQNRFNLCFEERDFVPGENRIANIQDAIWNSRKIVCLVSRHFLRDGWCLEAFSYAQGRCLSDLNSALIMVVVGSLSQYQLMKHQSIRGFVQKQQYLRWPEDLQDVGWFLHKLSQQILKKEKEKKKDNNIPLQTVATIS
It is filed as cell-based. The conditions noted are these: HEK-Blue hTLR5 cells. How it is done: Also, the EC50 was calculated using triplicate OD 620 nm values for each protein concentration over a wide range of protein concentrations (0.0375 nM-19.29 nM at the AAT Bioquest website).

Series [1] relates to Bone marrow-derived dendritic cells (BMDCs). In words: Cellular uptake of EF and DEF in BMDCs (flow cytometry). The conditions noted are these: 2 hours, anti-FlaB staining, FACS gated on CD11c+. Type of series: cell-based, C57BL/6 mice. How it is done: Cells treated with PBS alone were used as a negative control. After incubation, the cells were washed twice with cold 1×PBS containing 3% FBS and then stained with anti-mouse CD11c^+ antibody (eBioscience, Clone: N418, 25-0114-82) for 1 hour at 4° C. and fixed with 4% paraformaldehyde (T&I, BPP-9004) for 10 minutes at room temperature. The cells were permeabilized using a permeabilization kit according to the manufacturer's instructions (Invitrogen, 00-8333-56) and stained with anti-FlaB antibodies, followed by FACS analysis by gating upon the CD11c^+ population. The results are depicted in FIG. 14.
A general note: In flow cytometry, cells or beads pass a laser one at a time.

A further series deals with BMDCs or RAW264.7 cells. Put plainly: Intracellular distribution of EF and DEF by confocal microscopy. Type of series: cell-based. The conditions noted are these: 20 μg/ml, 2 hours. How it is done: After incubation, the cells were harvested, washed, fixed with 100% methanol for 15 minutes at room temperature, and stained with anti-mouse CD11c^+ APC-conjugated antibody and DAPI, a nuclear stain, for 1 hour at room temperature. After two washes with cold 1×PBS, the intercellular distributions of the peptides within the dendritic cells (CD11c^+) were determined by confocal microscopy (LSM800).

The nature of series [2]: In vivo distribution of FNR675-labeled peptides in draining inguinal lymph nodes. On the set-up: species or system  mice. The conditions noted are these: subcutaneous. How it is done: Next, the conjugated proteins were quantitatively determined from the calibration curve of the FNR675-NHS ester using a UV-Vis spectrophotometer (UV-2700, Shimadzu, Japan).
The fluorescence signals in the draining lymph nodes were determined and are depicted in FIG. 16. In addition, six hours after injection, the draining inguinal LN (iLN) cells were prepared, and then in vivo DC-targeting was determined by FACS analysis gating upon CD11c^+ cell population, and the results are depicted in FIG. 17.

Series [3] concerns TC-1 cells. Put plainly: Antitumor efficacy of peptides in TC-1 tumor-bearing mice (survival, tumor volume). It is filed as in vivo, C57BL/6 mice. On the procedure:
Female SPF C57BL/6 mice 7 to 8 weeks old were purchased from ORIENT (Seongnam-si, Gyeonggi-do, Korea). TC-1 cells were cultured in RPMI 1640 medium supplemented with 10% heat-inactivated FIBS, 100 units/ml penicillin, and 100 μg/ml streptomycin at 37° C. under 5% CO2. Tumors were established in mice by subcutaneous injection of 5×10^4 TC-1 cells in 100 μl of PBS into the right mid-flank of each mouse. […] Tumor growth was monitored every three days. The tumor volume was calculated with formula V=(tumor length)×(tumor width)×(tumor height)/2.
The tumor-bearing mice were administered the all-in-one vaccine of the present disclosure as in Example 5 and measured for survival rate and tumor volume in the same manner. For a positive control, a group of mice was immunized with HPV16 E7 CTL peptide (amino acid 49-57: […]), known as a cytotoxic T lymphocyte (CTL)-inducing peptide.

Series [4] concerns Bone marrow-derived dendritic cells (BMDCs). Put plainly: Antigen-presenting cell activation (CD80 and CD86 on BMDC surface). It is filed as cell-based, C57BL/6 mice. The conditions noted are these: 0.5 μg/ml, 24 hours. An excerpt: The cells were stained on ice with fluorophore-labeled antibodies before flow cytometry analysis.
For series [5], the system named is CTL epitope-specific tetramer+ CD8+ cells. In words: Antigen-specific T cell immune response (E7 tetramer+ CD8+ cells in peripheral blood). Type of series: in vivo, mice. How it is done: The peptides of the present disclosure as in Example 5 were administered to mice with or without tumors and peripheral blood was collected therefrom. After removal of RBC by RBC lysis buffer, the blood was stained with the tetramer antibody (PE-conjugated HPV16 H-2Db-[…], TB-5008-1, MBL) and CD8 antibody and analyzed by flow cytometry.

Series [6] has as its system IFN-γ-producing cells of spleen (SPL) or tumor-draining lymph nodes (TDLNs). Put plainly: CTL peptide-specific immune response (IFN-γ ELISpot). Type of series: in vivo, mice. How it is done: Single-cell suspensions from the spleen (SPL) or tumor-draining lymph nodes (TDLNs) were prepared by administering the peptides of the present disclosure to mice with or without tumors in the same manner as in Example 5. A total of 1×10^6 SPL or 2.5×10^5 TDLNs cells were seeded into 96-well Filtration ELISpot plates (Merck, HAMAS4510) and stimulated with 1 μg/ml E7 CTL peptide (amino acids 49-57: […]). Cells stimulated with 10 ng/ml concanavalin A were used as a positive control. After two days of culture of SPL cells or five days of culture of TDLN cells, IFN-γ-producing cells were detected by using the mouse IFN-γ ELISpot Set (BD Bioscience, 551083) according to the manufacturer's instructions. IFN-γ-producing cells were analyzed using a CTL-ImmunoSpot Analyzer and ImmunoSpot Professional Software version 5.0 (Cellular Technology, Shaker Heights, OH, USA).

Series [7] deals with TC-1 cells. Put plainly: Antitumor effect in TLR5-knockout TC-1 tumor-bearing mice. Type of series: in vivo. The source says: (§1) Wild-type (WT), TLR5-knockout (TLR5^−/−) and NLRC4-knockout (NLRC4^−/−) mouse groups were implanted with TC-1 cells in the right mid-flank. […] The results are depicted in FIG. 25.
For series [8], the system named is TC-1 cells. Put plainly: Antitumor effect in NLRC4-knockout TC-1 tumor-bearing mice. It is filed as in vivo. The conditions noted are these: 20 μg.
From the text: as §1

The next series relates to CD8^+ T cells. In words: Peptide-mediated CD8+ T cell activation (CFSE dilution, coculture with pulsed BMDCs). It is filed as cell-based, mice. On the procedure:
CD8^+ splenocytes from TC-1 tumor-bearing mice were prepared using the MagniSort™ Mouse CD8 T Cell Enrichment kit (Invitrogen, 8804-6822) according to the manufacturer's instructions, and were labeled with 5 μM CFSE. EF- or DEF-pulsed BMDCs were cocultured with CFSE-stained CD8^+ cells at a ratio of 1:5 (BMDC:CD8^+ T cells) for 3 days in RPMI 1640 medium supplemented with 10% fetal bovine serum (HyClone, Logan, UT), 1% penicillin/streptomycin (Life Technologies, Grand Island, NY), and 50 μM 2-mercaptoethanol (Sigma, 516732). CD8^+ T cell proliferation was assessed by CFSE dilution using flow cytometry.

Setting [9] is: versus E7 Pep+F positive control.

B1: DEF (protein)
chain: MRFFCLGPLGFTKVDIDGPAGQAEPDRAHYNIVTFCCKCDSTLRLCVQSTHVDIRTLEDLLMGTLGIVCPICSQKPEFIDGPAGQAEPDRAHYNIVTFCCKCDSTLRLCVQSTHVDIRTLEDLLMGTLGIVCPICSQKPVDIDGPAGQAEPDRAHYNIVTFCCKCDSTLRLCVQSTHVDIRTLEDLLMGTLGIVCPICSQKPVDIDGPAGQAEPDRAHYNIVTFCCKCDSTLRLCVQSTHVDIRTLEDLLMGTLGIVCPICSQKPKLMAVNVNTNVAAMTAQRYLNNANSAQQTSMERLSSGFKINSAKDDAAGLQISNRLNVQSRGLDVAVRNANDGISIAQTAEGAMNETTNILQRMRDLSLQSANGSNSKSERVAIQEEVTALNDELNRIAETTSFGGNKLLNGTYGTKAMQIGADNGEAVMLSLKDMRSDNVMMGGVSYQAEEGKDKNWNVAAGDNDLTIALTDSFGNEQEIEINAKAGDDIEELATYINGQTDLVKASVGEGGKLQIFAGNNKVQGEIAFSGSLAGELGLGEGKNVTVDTIDVTTVQGAQESVAIVDAALKYVDSHRAELGAFQNRFNHAISNLDNINENVNASKSRIKDTDFAKETTQLTKTQILSQASSSILAQAKQAPNSALSLLGLEHHHHHH
modifications: DCpep6::4xE7deltaNLS::FlaB (DEF)
Turning to B1, the “NF-κB activity levels (FIG. 13)” value with TLR5 was “increased the activity in dose-dependent manners”. Moreover, the “cellular uptake in bone marrow-derived dendritic cells (FIG. 14)” value in [1] was “concentration-dependent cellular uptake”. Besides, the “intracellular location (FIG. 15)” value with BMDCs or RAW264.7 cells was “located in the cytoplasm of CD11c^+ cells”. Besides, the “time to removal from the draining lymph nodes post administration” value in [2] is at most 24 h. Moreover, the “tumor volume (FIG. 19)” value in the series on TC-1 cells [3] (among all administered groups) was “smallest”. In the series with TC-1 cells [3] (compared with E7ΔNLS (E)-administered group), the “survival (FIG. 18)” value was “significantly longer survival; also recorded: longest survival”. Besides, the “survival compared with HPV16 E7 CTL peptide+FlaB (E7 Pep+F) group (FIG. 18)” value with TC-1 cells [3] (setting [9]) is reported as “notably longer survival”. Also, in the series on TC-1 cells [3] (setting [9]), the “tumor volume compared with HPV16 E7 CTL peptide+FlaB (E7 Pep+F) group (FIG. 19)” value is given as “remarkably much smaller”. In addition, the “expression of CD80 and CD86 on BMDC surface (FIG. 20)” value in series [4] is on record as “significantly enhanced expression”. In series [5] (mice without tumors), the “tetramer-positive cells in peripheral blood (FIG. 22)” value is reported as “remarkably high levels”. For the same molecule, the “CTL epitope-specific tetramer-positive CD8+ cells in peripheral blood (FIG. 21)” value in series [5] (tumor-bearing mice, compared with PBS, E and EF groups) is on record as “significantly higher levels”. The “IFN-γ production (FIG. 24)” value in series [6] (mice without tumors) is on record as “significantly higher level”. Moreover, in series [6] (tumor-bearing mice, compared to PBS, E and EF), the “IFN-γ production level in SPL and TDLNs (FIG. 23)” value is given as “significantly enhanced”. In addition, in the series on TC-1 cells [7] (20 μg, TLR5^−/− versus wild-type), the “survival and tumor volume effect in TLR5^−/− mice relative to wild-type mice (FIG. 25)” value is “significantly lower levels”. Further, the “survival (FIG. 25)” value in the series on TC-1 cells [7] (TLR5^−/− mice, 20 μg subcutaneous peritumoral three times, compared to PBS group) was “significantly longer survival”. The “tumor volume (FIG. 25)” value with TC-1 cells [7] (TLR5^−/− mice, 20 μg, compared to PBS group) was “decreased”. Moreover, the “effects on tumor volume and survival (FIG. 25)” value in the series with TC-1 cells [8] is listed as “abolished”. Moreover, the “division index of CD8+ T cells (FIG. 26)” value in the series with CD8^+ T cells (NLRC4-knockout (NLRC4^−/−) mice, 1 μg/mL) is “rather decreased”; in the series with CD8^+ T cells (wild-type (WT) mice BMDCs pulsed with 1 μg/mL for 24 hours, coculture 1:5 for 3 days), “significantly enhanced”.
